What all share (type): cell-based
Assay [1] concerns A549 human non-small cell lung cancer line. In words: G418 (monolayer) colony growth assay. The note with it: transfected A549, G418 for 3 weeks; mean over three experiments. An excerpt:
(§1) Figure 6 Talin R8 Mutations Disrupt the Interaction with DLC1 and Affect Its Biological Activity (A) Wild-type GST-talin fragments pull down more DLC1 than the 2E mutants. Extracts of HEK293T cells transfected with GFP-DLC1 and GST-talin constructs were subjected to pull-down assays with glutathione beads followed by immunoblotting with anti-GST and anti-DLC1 on the same membrane (top). The transfected GFP-DLC1 in each sample is shown by the anti-DLC1 blot (bottom) as a loading control. (B) Wild-type GST-talin fragments compete efficiently with endogenous talin to form a complex with DLC1. The supernatants collected after pull-down assay from (A) were reused for co-immunoprecipitation with an anti-talin antibody and blotted with anti-DLC1 (top). A small aliquot from each lane was blotted for endogenous talin as a loading control (bottom). (C) Co-expression of GST or GST-talin fragments (wild-type or 2E mutant) with GFP DLC1 in A549 cells. […] Transfected A549 cells were cultured in G418 for 3 weeks, and colonies counted and quantitated (top). […] Transfected A549 cells were grown for 3 weeks in soft agar, and colonies counted and quantitated (top). […] Lysates from migrated cells were quantitated (top), and representative microscopic images of the migrated cells are shown (bottom). […]

The test system is the same in assay [2]. Kind of assay: Growth in soft agar. The note with it: transfected A549, 3 weeks; mean over three experiments.
Source text: as §1

The test system is the same in assay [3]. Kind of assay: Transwell cell migration assay. The following applies: transfected A549, transwell, 24 h; mean over three experiments.
Source text: as §1

For another assay, the system named is GFP-DLC1. Kind of assay: GST pull-down of GFP-DLC1 in HEK 293T cells. The note with it: HEK 293T cells co-transfected with GFP-DLC1 and GST-tagged talin constructs, immunoblot. On the procedure:
We reported previously that wild-type talin R8 is sufficient to form a complex with full-length DLC1 in cells ([Li et al., 2011]). To evaluate the effects of the single K1530E and K1544E and double K1530E/K1544E (2E) R8 mutants on the complex formation in vivo, we engineered GST-tagged R8 constructs into isogenic mammalian expression plasmids and co-transfected them with GFP-DLC1 into HEK 293T cells. Complex formation was determined by a GST pull-down assay.
The plasmids expressing GFP-DLC1 and GST fusion proteins with talin rod fragments encoding talin amino acids 1,288–1,646 and 1,453–1,580 (R8) were described previously ([Li et al., 2011]). The plasmid encoding 1,352–1,580 (R7R8) was engineered by PCR and subcloned into a eukaryotic expression vector, PEBG. HEK293T cells were transfected by Lipofectamine 2000, and DLC1-null lung adenocarcinoma cell lines A549 and H358 cells were transfected by Lipofectamine 3000 according to the manufacturer’s instructions (Invitrogen). Cells were co-transfected with plasmids expressing GFP-DLC1 or Paxillin-DDK and GST, GST-talin fragments, or vector at a ratio of 1:2.5. Cells were incubated at 37°C in a humidified 5% CO2 atmosphere. In vivo pull-down assay, co-immunoprecipitation, immunoblotting, G418 colony growth, soft agar growth, and cell migration assays were described previously ([Qian et al., 2009]). All experiments were conducted in triplicate.
Figure S2, related to Figures 4 and 5. […]
R8 talin fragment were co-transfected with GFP-DLC1 into 293T cells. Cell extracts were subjected
(1 picture or pasted object on this page, not shown here) […]
to pull-down assay with glutathione beads followed by immunoblotting with anti-GST and anti-DLC1 on the same membrane (top). The transfected GFP-DLC1 in each sample is shown by the anti-DLC1 blot (bottom) as a loading control. […]
HEK 293T cells were transfected by lipofectamine 2000 and DLC1-null lung adenocarcinoma cell lines A549 and H358 cells were transfected by lipofectamine 3000 according to manufacturer instructions (Invitrogen). Cells were co-transfected with plasmids expressing GFP-DLC1 or Paxillin-DDK and GST, GST-talin fragments, or vector at a ratio of 1:2.5. Cells were incubated at 37 °C in a humidified 5% CO2 atmosphere.
In vivo pull-down assay, co-immunoprecipitation, and immunoblotting - As described previously (Qian et al., 2009), two days after transfection, cell extracts were collected using golden lysis buffer (GLB: 20 mM Tris pH 7.9, 137 mM NaCl, 10% glycerol, 1% Triton, 5 mM EDTA, 1 mM EGTA, 1 mM Na3VO4, 10 mM NaF, 1 mM sodium pyrophosphate, 0.5 mM β-glycerophosphate, and protease inhibitor cocktail tablet (Roche)). The cleared supernatants were collected, and the amount of protein estimated by BCA kit (Pierce). […]
(In general: A western blot detects proteins with antibodies after separation by electrophoresis.)

Changes are numbered by the printed parent chain. Numbers in names are those of the source. Entries after “also recorded” stand apart in the source; their conditions may differ.

B1: GFP-DLC1: GFP fusion of full-length DLC1 expressed from plasmid (protein)
chain: MCRKKPDTMILTQIEAKEACDWLRATGFPQYAQLYEDFLFPIDISLVKREHDFLDRDAIEALCRRLNTLNKCAVMKLEISPHRKRSDDSDEDEPCAISGKWTFQRDSKRWSRLEEFDVFSPKQDLVPGSPDDSHPKDGPSPGGTLMDLSERQEVSSVRSLSSTGSLPSHAPPSEDAATPRTNSVISVCSSSNLAGNDDSFGSLPSPKELSSFSFSMKGHEKTAKSKTRSLLKRMESLKLKSSHHSKHKAPSKLGLIISGPILQEGMDEEKLKQLNCVEISALNGNRINVPMVRKRSVSNSTQTSSSSSQSETSSAVSTPSPVTRTRSLSACNKRVGMYLEGFDPFNQSTFNNVVEQNFKNRESYPEDTVFYIPEDHKPGTFPKALTNGSFSPSGNNGSVNWRTGSFHGPGHISLRRENSSDSPKELKRRNSSSSMSSRLSIYDNVPGSILYSSSGDLADLENEDIFPELDDILYHVKGMQRIVNQWSEKFSDEGDSDSALDSVSPCPSSPKQIHLDVDNDRTTPSDLDSTGNSLNEPEEPSEIPERRDSGVGASLTRSNRHRLRWHSFQSSHRPSLNSVSLQINCQSVAQMNLLQKYSLLKLTALLEKYTPSNKHGFSWAVPKFMKRIKVPDYKDRSVFGVPLTVNVQRTGQPLPQSIQQAMRYLRNHCLDQVGLFRKSGVKSRIQALRQMNEGAIDCVNYEGQSAYDVADMLKQYFRDLPEPLMTNKLSETFLQIYQYVPKDQRLQAIKAAIMLLPDENREVLQTLLYFLSDVTAAVKENQMTPTNLAVCLAPSLFHLNTLKRENSSPRVMQRKQSLGKPDQKDLNENLAATQGLAHMIAECKKLFQVPEEMSRCRNSYTEQELKPLTLEALGHLGNDDSADYQHFLQDCVDGLFKEVKEKFKGWVSYSTSEQAELSYKKVSEGPPLRLWRSVIEVPAVPEEILKRLLKEQHLWDVDLLDSKVIEILDSQTEIYQYVQNSMAPHPARDYVVLRTWRTNLPKGACALLLTSVDHDRAPVVGVRVNVLLSRYLIEPCGPGKSKLTYMCRVDLRGHMPEWYTKSFGHLCAAEVVKIRDSFSNQNTETKDTKSR
modifications: left off: GFP, end not stated, kept
notes: GFP fusion of full-length DLC1 expressed from plasmid
As for B1, the colony growth result in assay [1] is “suppressed colony formation; also recorded: inhibitory in all three assays”. Besides, the “growth in soft agar” value in assay [2] was “inhibitory in all three assays”. Further, the cell migration result in assay [3] was “suppressed cell migration; also recorded: inhibitory in all three assays”.

B2: talin R8 K1530E: GST-tagged talin R8 single mutant K1530E (protein)
chain: NSQAGQQGLVEPTQFARANQAIQMACQSLGEPGCTQAQVLSAATIVAKHTSALCNSCRLASARTANPTAKRQFVQSAEEVANSTANLVKTIKALDGDFTEENRAQCRAATAPLLEAVDNLSAFASNPE
modifications: left off: GST, end not stated, kept
Take B2: the entries for the “DLC1 binding in GST pull-down” value with GFP-DLC1 and in the assay on GFP-DLC1 (listed as GST-talin R1530E) were “greater reduction in DLC1 binding than K1544E” and “binds DLC1 less well than the K1544E mutant”, respectively.

B3: 2E double mutant: GST-tagged talin R8 K1530E/K1544E double mutant (protein)
chain: B2 chain with K92E
modifications: left off: GST, end not stated, kept
For the molecule B3, the “DLC1 binding in GST pull-down” value in the assay on GFP-DLC1 was “reduced binding to a greater extent than either single mutant”; with GFP-DLC1 (listed as talin R8 K1530E/K1544E double mutant), “markedly reduced binding”.

The values above are taken from PMC4938799, “LD Motif Recognition by Talin: Structure of the Talin-DLC1 Complex” (Structure(London, England:1993), 2016).
